Data set [1] can be described thus: folding stability dG unfold (combined trypsin and chymotrypsin); higher = more stable. In outline: (§1)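 Only designs with AlphaFold2 dimer inter-PAE above 15 were retained; each was a mini-protein under 80 residues with no cysteine, in a PA-tagged cDNA display construct. After digestion with trypsin and chymotrypsin and sequencing, K50 was inferred by Bayesian fitting of counts, and unfolding free energy was derived per protease or combined against a sequence-predicted unfolded-state K50 and a shared folded-state K50.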

The nature of data set [2]: folding stability dG unfold from trypsin proteolysis; higher = more stable. The method, then: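 Folding stability of de novo designed mini-proteins (<80 aa, no Cys; designed by TrROS, TrMRF, ProteinMPNN and the joint model) was measured by cDNA display proteolysis with trypsin and chymotrypsin. Each protease was used at 11 concentrations in a threefold dilution series plus a no-protease condition. K50 was inferred by Bayesian fitting of sequencing counts, and dG unfold was derived against a sequence-predicted unfolded-state K50 (Tsuboyama et al. method). Sequences shown include variable-length N-terminal GS-type padding (SAGGSAGG...) inside a display construct carrying a PA tag. Rows were kept only if the AF2 dimer inter-PAE was >15, to exclude likely homo-oligomers.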

Data set [3] is described as follows: folding stability dG unfold from chymotrypsin proteolysis; higher = more stable. In outline:
as §1

These results are taken from the supplement of paper PMC12764529.

± gives the half width of the 95% confidence interval.

As to “SAGGSAGGEPITPEEAREIADYFMEEHGAKEVEVKVDPNGGIIKIDVTHPNDGRKYEREIQIEKSAGGSAGG [r6_550_TrROS]”, the “folding stability dG unfold” value is less than -1 kcal/mol in data set [1] and 0.142 ± 0.13 kcal/mol in data set [2].

For “SAGGSAGGMSISTEQEGGKITVTDSSPGTPIAELPPDVEKEVETPVIPPPPPLYRLFLPGTVLVSAGGSAGG [r6_40_JUSTAS]”, the “folding stability dG unfold” value in data set [1] is less than -1 kcal/mol; in data set [2], -0.94 ± 0.48 kcal/mol.

In the case of “SAGGSAGGMTAEEVAEWIADEFMENHPNIEIKPVATEDGEVKIDIRHPNSGMTHTFKIPPGQPLSAGGSAGG [r6_446_TrROS]”, the “folding stability dG unfold” value was less than -1 kcal/mol in data set [1] and -0.796 ± 0.19 kcal/mol in data set [2].

For “SAGGSAGGMVEHVVTVPPSQVEEVIEEAKPKPVVEVKVEKVPGRDEVVVTMKYEIPEEELLKKLSAGGSAGG [r6_273_JUSTAS]”, the “folding stability dG unfold” value was less than -1 kcal/mol in data set [1] and -0.704 ± 0.084 kcal/mol in data set [2].

As to “SAGGSAGGMVPITDLTVDSEEFVLPTGGVATRETITRPATGLVYEKVVFTPKPGVVEQREVALLSAGGSAGG [r6_895_JUSTAS]”, the “folding stability dG unfold” value was less than -1 kcal/mol in data set [1] and -0.471 ± 0.12 kcal/mol in data set [2].

Take “SAGGSAGGNPEDKERRYVRMPIKVTVPNPNGKKIKIPIYMPVGDPERMMPRAIKFARELAKKGLSAGGSAGG [r6_903_TrROS]”: the “folding stability dG unfold” value in data set [1] is less than -1 kcal/mol; in data set [2] it was -0.301 ± 0.7 kcal/mol.

Take “SAGGSAGGPPDDVEPEEFTFRFGDKPIKVEILRVNPDNNNIMIKHESNGKPKTMMFPPEDLEKLSAGGSAGG [r6_421_TrROS]”: the “folding stability dG unfold” value is -0.0461 ± 0.25 kcal/mol in data set [1] and -0.129 ± 0.29 kcal/mol in data set [2].

As for “SAGGSAGGPVTVVPVVTPADVPVLTTPGGAPARPASRPDLVRPVASTVTVTITPAPAAPTVTVLSAGGSAGG [r6_537_JUSTAS]”, the figures for the “folding stability dG unfold” value in data set [1] and in data set [2] were 0.135 ± 0.12 kcal/mol and 0.857 ± 0.038 kcal/mol, respectively.

As for “SAGGSAGGPYMVMIRMPNNPQPIWFPPDEVKEALKEGDEKRIKFPGGGMEMTIRNVDDIEIMPPSAGGSAGG [r6_509_TrROS]”, the entries for the “folding stability dG unfold” value in data set [1] and in data set [2] were less than -1 kcal/mol and -0.793 ± 0.58 kcal/mol, respectively.

“SAGGSAGGSAALGDESLHRPVPVVSTSPVTTTTTLTLTPPNGVTVTESVTTTTTVYGSGAASAGGSAGGSAG [r3_380_JUSTAS]”: the “folding stability dG unfold” value in data set [1] came to 0.172 ± 0.13 kcal/mol; in data set [2] it was 0.553 ± 0.025 kcal/mol.

Consider “SAGGSAGGSADIELLGESVDPATGRSSKTFQAPGKIIVETTAPDGTKTTSVVDPNSNVTIPLSAGGSAGGSA [r18_230_JUSTAS]”, for which the “folding stability dG unfold” value in data set [1] is less than -1 kcal/mol; in data set [2], -0.522 ± 0.11 kcal/mol.

As for “SAGGSAGGSAESIDAKVTPVALPSGPRYLIEVNNPAAPEIPKSVVEEELAKKYPKERVELLSAGGSAGGSAG [r3_226_JUSTAS]”, the “folding stability dG unfold” value in data set [1] was less than -1 kcal/mol; in data set [2] it was -0.516 ± 0.1 kcal/mol.

Regarding “SAGGSAGGSAGEPIRVRIENPPGGQRKITIPTDDLQEKGITPKDIAKKLAREFGWPIEVWSAGGSAGGSAGG [r11_829_TrROS]”, the “folding stability dG unfold” value in data set [1] is less than -1 kcal/mol; in data set [2] it was 0.257 ± 0.3 kcal/mol.

On to “SAGGSWIPVEEIAENFPNVEVNTHPNGNIMVRFTHKRKKPNGGKKKHNMTVQLDPEDGRLQSIHPYSAGGSA [r2_104_TrROS]”, for which, in data set [2], the “folding stability dG unfold” value is -0.0297 ± 0.48 kcal/mol.

In the case of “SKPGDKLEEVTIKIYNPGNGRPREITIEKHEDGWRAQVMNPPGQTKEIPPNDTLEDLLNLPPNYYIEIIPSA [r9_781_TrROS]”, in data set [2], the “folding stability dG unfold” value is -0.271 ± 0.2 kcal/mol.

As for “SMVYVPEKNVIIEESEKLFYDPNKPRDLRVKTTPVIEVSPSGEKKTLKTEITFYNPEGNPIFTEESEIEISA [r9_383_JUSTAS]”, the entries for the “folding stability dG unfold” value in data set [3] and in data set [1] were -0.399 ± 0.22 kcal/mol and less than -1 kcal/mol, respectively.

In the case of “SSAEEIARRLAEELNLDRVEVRVERLRLEPAEAPEEVRVVRPAPPPPPVTEEERRRRPEERRRRLSEEELSA [r9_724_TrROS_Hall]”, the “folding stability dG unfold” value in data set [3] is -0.262 ± 0.32 kcal/mol; in data set [1], less than -1 kcal/mol.

For “SSPVVVSESTDPNSSTKTITVTLPPNARVTLTLPGEPVETRPQPDATATLTTGPDALDITIEPLPPGVPLSA [r9_221_JUSTAS]”, the “folding stability dG unfold” value in data set [3] was 0.474 ± 0.1 kcal/mol; in data set [1], -0.714 ± 0.24 kcal/mol.

Turning to “SSTTPYGDKTVVTTTTPVPGAGKELVTTTTYTFTPDPNSASTSTTATTTTTVTPLPEEAPTPEAVALRRASA [r9_363_JUSTAS]”, the “folding stability dG unfold” value in data set [3] is -0.937 ± 0.44 kcal/mol; in data set [1] it was less than -1 kcal/mol.

In the case of “SVIIKGPGPETYYVEKFGNETKITKFSTEGDKFYKKEYYETFDPNNKTVSRKENEVEEIEPEEEKPFSELSA [r9_83_JUSTAS]”, the “folding stability dG unfold” value in data set [3] turned out to be 0.546 ± 0.11 kcal/mol; in data set [1], 0.0208 ± 0.11 kcal/mol.

As to “VSPLDLEGPGGLPPSELRRVSVLREETDPSVGEKRLSPVGTLFVPKDTSPEEVEAIIAARPDITRVEVRLLS [r1_132_JUSTAS]”, the “folding stability dG unfold” value in data set [3] was found to be 0.502 ± 0.067 kcal/mol; in data set [1], 0.0944 ± 0.082 kcal/mol.
